Laboratory results from patent US20210030857A1 (NGM BIOPHARMACEUTICALS, published 2021).
Values joined by “and” are separate entries in the source; they are usually repeats but may differ in a detail not shown here. Equal values may be shown once.

What was measured:
[1] = target: T1, human beta klotho / human FGFR1c receptor complex on cells (human, UniProt Q86Z14 1-1044; P11362 22-822); test: cell-based or functional assay
[2] = target: cynomolgus beta klotho / human FGFR1c receptor complex on cells (cynomolgus monkey (Macaca …)); test: cell-based or functional assay
[3] = target: T1, human beta klotho / human FGFR1c …; test: cell-based or functional assay; remark: listed apart in the source
[4] = target: T2, mouse-human KLB chimeric protein (mouse KLB (M1-F506)-human KLB (S509-S1044)) on cells (mouse/human chimera, UniProt Q86Z14 1-1044 (human entry)); test: FACS on transfected Expi293 cells
T2 construct: also called Mouse-Human chimeric KLB; chMoHu
Method: (§1) Studies were performed in order to localize the binding site on human KLB of anti-beta klotho antibodies in the 5H23 epitope bin, including 5H23 as described in Example 3, with sequences shown in Tables 1-10 and FIGS. 1-3, and human anti-beta klotho antibodies in the 5H23 epitope bin, such as humanized 5H23 antibodies (e.g., VH SEQ ID NO: 271 and VL SEQ ID NO: 276). For example, FACS-based binding assays for domain mapping were performed on Expi293 cells (Life Technologies, A14635) that were transiently transfected with plasmids encoding variants of KLB: human, mouse, cynomolgus, a chimeric version in which the KL1 domain sequence of mouse KLB (M1-F506) replaces the KL1 domain of human KLB (M1-F508) to create mouse-human KLB (SEQ ID NO: 376), and a second chimera in which the human KL1 sequence (M1-F508) replaces the KL1 domain of mouse KLB (M1-F506) to create human-mouse KLB (SEQ ID NO: 374). Additionally, the expression vector pYD7 harboring no KLB sequence was transfected as a negative control.
(§2) In some studies, binding of a purified sample of a humanized 5H23 antibody (e.g., VH SEQ ID NO: 271 and VL SEQ ID NO: 276) to KLB variants was determined by FACS analysis. […] After washing with PBS/1% BSA/0.1% azide, transfected cells were then co-incubated with labeled anti-human Fc (Jackson lmmunoresearch) for 30 minutes at 4° C. After washing with PBS/1% BSA/0.1% azide, cells were acquired on flow cytometer (FACS Calibur) and analyzed by cytometric software (FlowJo). To display the resulting data, graphs plotting the number of cells as a function of fluorescence intensity were generated, and the median fluorescence intensity (MFI) was determined for each sample as shown in Table 30.

[5] = target: T3, mouse beta klotho expressed on cells (mouse (Mus musculus), UniProt Q99N32 1-1043); test: FACS on transfected Expi293 cells, antibody 1 µg/ml, labelled anti-human Fc
T3 construct: also called Mouse KLB
T3 sequence: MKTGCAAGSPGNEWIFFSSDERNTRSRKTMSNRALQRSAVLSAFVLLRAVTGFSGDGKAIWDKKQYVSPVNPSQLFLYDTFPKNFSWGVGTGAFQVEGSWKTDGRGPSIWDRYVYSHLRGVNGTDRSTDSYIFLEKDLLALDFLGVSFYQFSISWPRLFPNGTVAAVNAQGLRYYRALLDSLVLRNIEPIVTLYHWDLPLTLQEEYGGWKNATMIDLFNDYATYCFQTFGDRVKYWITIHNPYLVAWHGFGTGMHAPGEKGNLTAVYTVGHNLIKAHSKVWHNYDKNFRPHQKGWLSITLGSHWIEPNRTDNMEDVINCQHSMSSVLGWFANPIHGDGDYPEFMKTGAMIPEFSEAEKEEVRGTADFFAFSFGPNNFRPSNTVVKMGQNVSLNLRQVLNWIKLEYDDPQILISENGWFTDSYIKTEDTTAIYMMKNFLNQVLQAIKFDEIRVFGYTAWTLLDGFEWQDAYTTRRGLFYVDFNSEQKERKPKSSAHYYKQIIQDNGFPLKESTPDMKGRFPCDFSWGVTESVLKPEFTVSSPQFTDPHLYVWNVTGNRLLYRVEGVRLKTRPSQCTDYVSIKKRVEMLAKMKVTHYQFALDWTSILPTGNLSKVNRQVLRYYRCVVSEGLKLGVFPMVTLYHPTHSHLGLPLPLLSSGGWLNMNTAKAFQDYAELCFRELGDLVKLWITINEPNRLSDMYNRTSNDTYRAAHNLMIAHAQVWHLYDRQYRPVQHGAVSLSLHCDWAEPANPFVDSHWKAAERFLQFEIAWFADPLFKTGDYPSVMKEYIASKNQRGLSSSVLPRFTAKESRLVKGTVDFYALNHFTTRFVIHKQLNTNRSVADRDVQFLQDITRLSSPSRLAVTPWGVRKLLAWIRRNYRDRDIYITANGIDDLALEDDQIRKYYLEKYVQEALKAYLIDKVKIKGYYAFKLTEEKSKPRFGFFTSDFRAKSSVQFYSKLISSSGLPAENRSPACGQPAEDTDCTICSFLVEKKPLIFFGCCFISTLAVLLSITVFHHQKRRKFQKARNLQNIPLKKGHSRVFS
Method: as §1, §2

[6] = target: T2, mouse-human KLB chimeric protein (mouse …); test: as above
Method: as §1, §2

Sequence of cynomolgus beta klotho / human FGFR1c receptor complex on cells (cynomolgus monkey (Macaca …)) (chain, as listed by the source limits assumed, chain 1 of 2): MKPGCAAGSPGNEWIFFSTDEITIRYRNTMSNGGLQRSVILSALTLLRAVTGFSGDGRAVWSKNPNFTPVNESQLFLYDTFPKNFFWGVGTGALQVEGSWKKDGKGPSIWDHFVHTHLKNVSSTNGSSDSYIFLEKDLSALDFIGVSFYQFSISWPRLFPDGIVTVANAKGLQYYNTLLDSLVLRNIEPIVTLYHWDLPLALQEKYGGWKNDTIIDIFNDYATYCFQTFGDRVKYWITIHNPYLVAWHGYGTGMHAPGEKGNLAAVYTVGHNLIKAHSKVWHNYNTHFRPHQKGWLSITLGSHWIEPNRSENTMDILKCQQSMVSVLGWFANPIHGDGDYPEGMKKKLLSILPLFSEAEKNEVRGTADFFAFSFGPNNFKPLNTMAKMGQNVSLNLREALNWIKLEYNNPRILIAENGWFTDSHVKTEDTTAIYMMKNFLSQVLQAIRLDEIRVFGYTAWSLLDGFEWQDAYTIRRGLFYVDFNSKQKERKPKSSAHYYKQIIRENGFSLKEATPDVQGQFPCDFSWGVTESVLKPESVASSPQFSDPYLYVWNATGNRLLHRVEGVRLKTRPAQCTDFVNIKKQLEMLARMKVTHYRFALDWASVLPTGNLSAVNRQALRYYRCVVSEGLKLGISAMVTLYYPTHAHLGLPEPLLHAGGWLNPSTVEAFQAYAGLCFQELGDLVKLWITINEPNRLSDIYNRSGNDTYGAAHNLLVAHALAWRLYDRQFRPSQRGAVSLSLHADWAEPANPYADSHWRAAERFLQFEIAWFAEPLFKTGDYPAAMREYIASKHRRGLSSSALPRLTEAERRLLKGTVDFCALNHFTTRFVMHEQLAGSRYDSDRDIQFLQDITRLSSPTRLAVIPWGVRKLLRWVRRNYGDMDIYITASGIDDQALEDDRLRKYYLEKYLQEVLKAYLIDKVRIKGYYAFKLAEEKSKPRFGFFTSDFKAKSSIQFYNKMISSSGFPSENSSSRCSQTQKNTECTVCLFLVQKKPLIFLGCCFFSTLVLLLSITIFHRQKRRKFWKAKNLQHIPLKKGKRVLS
Sequence of cynomolgus beta klotho / human FGFR1c receptor complex on cells (cynomolgus monkey (Macaca …)) (chain, as listed by the source limits assumed, chain 2 of 2): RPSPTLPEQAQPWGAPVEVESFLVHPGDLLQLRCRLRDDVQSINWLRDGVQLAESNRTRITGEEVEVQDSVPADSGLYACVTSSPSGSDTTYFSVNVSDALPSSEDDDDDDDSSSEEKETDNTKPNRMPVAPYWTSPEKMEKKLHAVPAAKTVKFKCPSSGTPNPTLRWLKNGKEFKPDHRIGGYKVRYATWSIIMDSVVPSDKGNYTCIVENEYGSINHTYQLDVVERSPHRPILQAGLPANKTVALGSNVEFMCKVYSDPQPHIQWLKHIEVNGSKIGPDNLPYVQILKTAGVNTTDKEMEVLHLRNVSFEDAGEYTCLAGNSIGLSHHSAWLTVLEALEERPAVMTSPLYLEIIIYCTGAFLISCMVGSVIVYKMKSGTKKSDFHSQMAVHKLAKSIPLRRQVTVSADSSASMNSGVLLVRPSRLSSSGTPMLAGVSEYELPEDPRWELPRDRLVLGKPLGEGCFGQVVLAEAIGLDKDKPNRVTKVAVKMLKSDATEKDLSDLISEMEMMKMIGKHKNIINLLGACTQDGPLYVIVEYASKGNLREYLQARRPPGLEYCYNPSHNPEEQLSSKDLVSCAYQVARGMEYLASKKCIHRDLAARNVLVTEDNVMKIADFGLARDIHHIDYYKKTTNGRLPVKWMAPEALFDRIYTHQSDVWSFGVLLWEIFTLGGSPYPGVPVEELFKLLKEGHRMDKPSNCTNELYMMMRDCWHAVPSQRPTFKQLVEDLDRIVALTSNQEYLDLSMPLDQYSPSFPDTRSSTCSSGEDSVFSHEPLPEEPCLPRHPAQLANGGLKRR
T1 sequence (Q86Z14 whole entry, chain 1 of 2): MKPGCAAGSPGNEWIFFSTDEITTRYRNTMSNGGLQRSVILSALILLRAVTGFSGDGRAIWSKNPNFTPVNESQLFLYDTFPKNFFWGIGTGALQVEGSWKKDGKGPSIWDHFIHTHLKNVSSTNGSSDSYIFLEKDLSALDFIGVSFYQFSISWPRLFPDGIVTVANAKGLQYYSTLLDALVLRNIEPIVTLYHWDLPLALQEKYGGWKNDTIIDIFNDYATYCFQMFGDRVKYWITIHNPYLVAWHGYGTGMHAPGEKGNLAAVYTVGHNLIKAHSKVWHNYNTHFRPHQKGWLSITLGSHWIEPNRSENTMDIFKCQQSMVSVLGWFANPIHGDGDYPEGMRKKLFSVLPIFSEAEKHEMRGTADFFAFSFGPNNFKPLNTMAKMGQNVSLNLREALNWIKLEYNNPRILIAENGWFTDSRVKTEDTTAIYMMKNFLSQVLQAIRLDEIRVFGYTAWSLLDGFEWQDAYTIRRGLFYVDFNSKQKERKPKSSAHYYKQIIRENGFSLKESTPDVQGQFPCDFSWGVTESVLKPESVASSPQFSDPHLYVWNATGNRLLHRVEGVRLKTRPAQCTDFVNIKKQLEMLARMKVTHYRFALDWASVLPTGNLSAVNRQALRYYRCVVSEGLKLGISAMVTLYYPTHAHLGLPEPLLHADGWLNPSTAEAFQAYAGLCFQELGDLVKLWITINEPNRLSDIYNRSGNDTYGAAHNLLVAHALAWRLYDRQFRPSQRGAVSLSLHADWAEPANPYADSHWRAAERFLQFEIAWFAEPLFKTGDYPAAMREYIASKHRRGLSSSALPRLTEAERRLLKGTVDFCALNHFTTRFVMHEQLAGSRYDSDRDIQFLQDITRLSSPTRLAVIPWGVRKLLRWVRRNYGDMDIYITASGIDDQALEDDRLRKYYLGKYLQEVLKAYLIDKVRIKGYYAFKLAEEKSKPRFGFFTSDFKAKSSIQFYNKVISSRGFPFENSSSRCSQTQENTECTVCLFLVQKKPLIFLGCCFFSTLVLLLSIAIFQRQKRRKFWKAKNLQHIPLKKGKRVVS
T1 sequence (P11362 22-822 limits assumed, chain 2 of 2): as the sequence (chain, as listed by the source limits assumed, chain 2 of 2) above

B1: Control mAb comprising SEQ ID NO: 358 and SEQ ID NO: 360 (antibody, human IgG2, lambda, V domains shown)
VH: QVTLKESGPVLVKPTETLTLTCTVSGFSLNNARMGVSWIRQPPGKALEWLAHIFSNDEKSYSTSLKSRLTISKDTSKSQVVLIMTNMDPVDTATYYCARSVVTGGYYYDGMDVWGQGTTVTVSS
VL: SYVLTQPPSVSVAPGQTARITCGGNNIGSESVHWYQQKPGQAPVLVVYDDSDRPSGIPERFSGSNSGNTATLTISRVEAGDEADYYCQVWDGNSDHVVFGGGTKLTVLG
notes: also called Control antibody
- HEK293 huKLB/R1c reporter assay EC50, Experiment - A [1]: 0.0453 nM
- HEK293 huKLB/R1c reporter assay EC50, Experiment - B [1]: 0.0279 nM
- HEK293 cynoKLB/R1c reporter assay EC50, Experiment - A [2]: 0.108 nM and 0.178 nM
- HEK293 cynoKLB/R1c reporter assay EC50, Experiment - B [2]: 0.227 nM
- EC50-adipocyte [3]: 3.4 nM
- EC50 reporter assay [3]: 0.2 nM and 0.54 nM
- binding result [4]: no binding (tested: 1 µg/ml)
- Mean Fluorescence intensity [5]: 10.6 MFI
- Mean Fluorescence intensity [6]: 5.6 MFI
